Results as given in PMC5342555, “ATAD2 is an epigenetic reader of newly synthesized histone marks during DNA replication” (Oncotarget, 2016).

B1: WT: TagGFP-tagged WT ATAD2 expressed in MCF7 cells (protein)
chain: MVVLRSSLELHNHSAASATGSLDLSSDFLSLEHIGRRRLRSAGAAQKKPAATTAKAGDGSSVKEVETYHRTRALRSLRKDAQNSSDSSFEKNVEITEQLANGRHFTRQLARQQADKKKEEHREDKVIPVTRSLRARNIVQSTEHLHEDNGDVEVRRSCRIRSRYSGVNQSMLFDKLITNTAEAVLQKMDDMKKMRRQRMRELEDLGVFNETEESNLNMYTRGKQKDIQRTDEETTDNQEGSVESSEEGEDQEHEDDGEDEDDEDDDDDDDDDDDDDDEDDEDEEDGEEENQKRYYLRQRKATVYYQAPLEKPRHQRKPNIFYSGPASPARPRYRLSSAGPRSPYCKRMNRRRHAIHSSDSTSSSSSEDEQHFERRRKRSRNRAINRCLPLNFRKDELKGIYKDRMKIGASLADVDPMQLDSSVRFDSVGGLSNHIAALKEMVVFPLLYPEVFEKFKIQPPRGCLFYGPPGTGKTLVARALANECSQGDKRVAFFMRKGADCLSKWVGESERQLRLLFDQAYQMRPSIIFFDEIDGLAPVRSSRQDQIHSSIVSTLLALMDGLDSRGEIVVIGATNRLDSIDPALRRPGRFDREFLFSLPDKEARKEILKIHTRDWNPKPLDTFLEELAENCVGYCGADIKSICAEAALCALRRRYPQIYTTSEKLQLDLSSINISAKDFEVAMQKMIPASQRAVTSPGQALSTVVKPLLQNTVDKILEALQRVFPHAEFRTNKTLDSDISCPLLESDLAYSDDDVPSVYENGLSQKSSHKAKDNFNFLHLNRNACYQPMSFRPRILIVGEPGFGQGSHLAPAVIHALEKFTVYTLDIPVLFGVSTTSPEETCAQVIREAKRTAPSIVYVPHIHVWWEIVGPTLKATFTTLLQNIPSFAPVLLLATSDKPHSALPEEVQELFIRDYGEIFNVQLPDKEERTKFFEDLILKQAAKPPISKKKAVLQALEVLPVAPPPEPRSLTAEEVKRLEEQEEDTFRELRIFLRNVTHRLAIDKRFRVFTKPVDPDEVPDYVTVIKQPMDLSSVISKIDLHKYLTVKDYLRDIDLICSNALEYNPDRDPGDRLIRHRACALRDTAYAIIKEELDEDFEQLCEEIQESRKKRGCSSSKYAPSYYHVMPKQNSTLVGDKRSDPEQNEKLKTPSTPVACSTPAQLKRKIRKKSNWYLGTIKKRRKISQAKDDSQNAIDHKIESDTEETQDTSVDHNETGNTGESSVEENEKQQNASESKLELRNNSNTCNIENELEDSRKTTACTELRDKIACNGDASSSQIIHISDENEGKEMCVLRMTRARRSQVEQQQLITVEKALAILSQPTPSLVVDHERLKNLLKTVVKKSQNYNIFQLENLYAVISQCIYRHRKDHDKTSLIQKMEQEVENFSCSR
modifications: left off: tagGFP, end not stated, kept
notes: TagGFP-tagged WT ATAD2 expressed in MCF7 cells
B2: ATPase mut: TagGFP-tagged ATPase mutant ATAD2 (K473T, E532Q) expressed in MCF7 cells (protein)
chain: MVVLRSSLELHNHSAASATGSLDLSSDFLSLEHIGRRRLRSAGAAQKKPAATTAKAGDGSSVKEVETYHRTRALRSLRKDAQNSSDSSFEKNVEITEQLANGRHFTRQLARQQADKKKEEHREDKVIPVTRSLRARNIVQSTEHLHEDNGDVEVRRSCRIRSRYSGVNQSMLFDKLITNTAEAVLQKMDDMKKMRRQRMRELEDLGVFNETEESNLNMYTRGKQKDIQRTDEETTDNQEGSVESSEEGEDQEHEDDGEDEDDEDDDDDDDDDDDDDDEDDEDEEDGEEENQKRYYLRQRKATVYYQAPLEKPRHQRKPNIFYSGPASPARPRYRLSSAGPRSPYCKRMNRRRHAIHSSDSTSSSSSEDEQHFERRRKRSRNRAINRCLPLNFRKDELKGIYKDRMKIGASLADVDPMQLDSSVRFDSVGGLSNHIAALKEMVVFPLLYPEVFEKFKIQPPRGCLFYGPPGTGTTLVARALANECSQGDKRVAFFMRKGADCLSKWVGESERQLRLLFDQAYQMRPSIIFFDQIDGLAPVRSSRQDQIHSSIVSTLLALMDGLDSRGEIVVIGATNRLDSIDPALRRPGRFDREFLFSLPDKEARKEILKIHTRDWNPKPLDTFLEELAENCVGYCGADIKSICAEAALCALRRRYPQIYTTSEKLQLDLSSINISAKDFEVAMQKMIPASQRAVTSPGQALSTVVKPLLQNTVDKILEALQRVFPHAEFRTNKTLDSDISCPLLESDLAYSDDDVPSVYENGLSQKSSHKAKDNFNFLHLNRNACYQPMSFRPRILIVGEPGFGQGSHLAPAVIHALEKFTVYTLDIPVLFGVSTTSPEETCAQVIREAKRTAPSIVYVPHIHVWWEIVGPTLKATFTTLLQNIPSFAPVLLLATSDKPHSALPEEVQELFIRDYGEIFNVQLPDKEERTKFFEDLILKQAAKPPISKKKAVLQALEVLPVAPPPEPRSLTAEEVKRLEEQEEDTFRELRIFLRNVTHRLAIDKRFRVFTKPVDPDEVPDYVTVIKQPMDLSSVISKIDLHKYLTVKDYLRDIDLICSNALEYNPDRDPGDRLIRHRACALRDTAYAIIKEELDEDFEQLCEEIQESRKKRGCSSSKYAPSYYHVMPKQNSTLVGDKRSDPEQNEKLKTPSTPVACSTPAQLKRKIRKKSNWYLGTIKKRRKISQAKDDSQNAIDHKIESDTEETQDTSVDHNETGNTGESSVEENEKQQNASESKLELRNNSNTCNIENELEDSRKTTACTELRDKIACNGDASSSQIIHISDENEGKEMCVLRMTRARRSQVEQQQLITVEKALAILSQPTPSLVVDHERLKNLLKTVVKKSQNYNIFQLENLYAVISQCIYRHRKDHDKTSLIQKMEQEVENFSCSR
modifications: left off: tagGFP, end not stated, kept
notes: TagGFP-tagged ATPase mutant ATAD2 (K473T, E532Q) expressed in MCF7 cells

What was measured:
MCF7 cells [1] = experiment: EdU incorporation (DNA replication) by flow cytometry; type: cell-based; details: MCF7 overexpressing tagGFP-tagged ATAD2, gated by tagGFP; mean ± SEM, n = 3 independent experiments
Protocol: informed consent was obtained (Indivumed, Hamburg, by incubating cells with primary antibodies for 1 h at Germany; Asterand, Detroit USA; Provitro Berlin, RT followed by labelling with secondary antibodies Germany) of different indications. Immunohistochemistry conjugated with Alexa488 or Alexa647 for 30 min at was performed using EnVision System-HRP (DAB) from RT in dark. For analysis of TagGFP-ATAD2 expressing Dako (K4006 and K4010). Prior to immunostaining the cells GFP was stained by GFP antibody to enhance the slides were deparaffinized and rehydrated in xylene and fluorescence signal. DNA was stained by DAPI at 1 μg/ graded ethanol to distilled water. Antigen was retrieved by ml for 10 min at RT. For EdU (5-ethynyl-2'-deoxyuridine) incubating the tissue in boiling Target Retrieval Solution labelling cells were incubated in 10 μM EdU for 2h at 37 pH 6.0 (Dako S2031) for 40 min and letting them cool °C prior to fixation and staining was carried out according […]
Peroxidase-Block for 15 min at RT the slides were washed Fluor® 647 Flow Cytometry Assay Kit, ThermoFisher). twice in washing buffer (PBS with 0.05 % Tween 20) and Cells were analyzed by flow cytometry using a BD LSR incubated with primary antibodies in Antibody-Diluent II. All imaging and quantifications were performed using […]
(Dako S2022) for 90 min at RT. […]
Immunofluorescence of cells were saved for whole cell extract and the rest was subjected for subsequent fractionation. Whole cell extract […]
and fixed in 2 % FA for 10 min at RT. […] The image series were imported in Fiji and 100 % MeOH for 10 min at – 20 °C and incubated in average fluorescence was in the bleached region (F(t)ROI), […]

MCF7 cells [2] = experiment: Fluorescence recovery after photobleaching (FRAP); type: cell-based; details: TagGFP-tagged ATAD2 in MCF7, FRAP, 20 images; mean ± SEM
Protocol: Immunofluorescence of cells were saved for whole cell extract and the rest was subjected for subsequent fractionation. Whole cell extract
Cells were grown on Matrigel-coated coverslips and was prepared by incubating cells in ice-cold RIPA buffer fixed in 4 % formaldehyde in PBS for 15 min at RT or in (25 mM Tris·HCl pH 7.6, 150 mM NaCl, 1 % NP-40, 1 100 % methanol for 7 min at -20 °C. After removing the % sodium deoxycholate, 0.1 % SDS) supplemented with residual FA or methanol by washing in PBS cells were protease inhibitor cocktail (Roche) for 10 min on ice and permeabilized in blocking solution (10 % goat serum sonicated at medium power, 0.5 intervals in BIORUPTOR and 0.3 % Triton X-100 in PBS) for 10 min at RT and for 3 min at 4 °C. Soluble lysate was recovered by incubated with primary antibodies in blocking solution. removing insoluble fractions after centrifugation at 20000 Following the removal of unbound antibodies by washing x g for 10 min 5 to 20 μg of lysates were used for SDS gel in PBS cells were incubated with secondary antibodies electrophoresis and Western blot. conjugated with Alexa Fluor 488, 555 or 647 (Invitrogen), washed and mounted on slides in presence of DAPI for Fluorescence recovery after photobleaching visualization of nucleus. Images were acquired using an (FRAP) inverted Zeiss LSM700 confocal microscope using a 488 nm Diode-Pumped Solid State Laser with a 63X, 1.3 N.A. FRAP experiment was performed as previously oil-immersion objective. For EdU labelling cells were described with minor modifications. […]
and fixed in 2 % FA for 10 min at RT. […] The image series were imported in Fiji and 100 % MeOH for 10 min at – 20 °C and incubated in average fluorescence was in the bleached region (F(t)ROI), stain buffer with 5 % normal goat serum for 10 min at the total cell nucleus (F(t)total) and a background (F(t)BG) RT for blocking. Then indirect staining was performed were determined. The relative fluorescence intensity

Molecule | EdU incorporation (normalized to control) (MCF7 cells [1]) | half recovery time (recovery t1/2) (MCF7 cells [2]) [s]
B1 | 0.75 ± 0.03 | 17.740
B2 | 0.38 ± 0.09 | 2.514
